Results from patent US20070280947A1.

Key:
Human Tie-2 (human) = Human Tie-2 (human) (UniProt Q02763); experiment: cell-based or functional assay
Human Tie-1 (human) = Human Tie-1 (human) (UniProt P35590); experiment: cell-based or functional assay
Chain of UniProt P35590 (P35590 25-1138): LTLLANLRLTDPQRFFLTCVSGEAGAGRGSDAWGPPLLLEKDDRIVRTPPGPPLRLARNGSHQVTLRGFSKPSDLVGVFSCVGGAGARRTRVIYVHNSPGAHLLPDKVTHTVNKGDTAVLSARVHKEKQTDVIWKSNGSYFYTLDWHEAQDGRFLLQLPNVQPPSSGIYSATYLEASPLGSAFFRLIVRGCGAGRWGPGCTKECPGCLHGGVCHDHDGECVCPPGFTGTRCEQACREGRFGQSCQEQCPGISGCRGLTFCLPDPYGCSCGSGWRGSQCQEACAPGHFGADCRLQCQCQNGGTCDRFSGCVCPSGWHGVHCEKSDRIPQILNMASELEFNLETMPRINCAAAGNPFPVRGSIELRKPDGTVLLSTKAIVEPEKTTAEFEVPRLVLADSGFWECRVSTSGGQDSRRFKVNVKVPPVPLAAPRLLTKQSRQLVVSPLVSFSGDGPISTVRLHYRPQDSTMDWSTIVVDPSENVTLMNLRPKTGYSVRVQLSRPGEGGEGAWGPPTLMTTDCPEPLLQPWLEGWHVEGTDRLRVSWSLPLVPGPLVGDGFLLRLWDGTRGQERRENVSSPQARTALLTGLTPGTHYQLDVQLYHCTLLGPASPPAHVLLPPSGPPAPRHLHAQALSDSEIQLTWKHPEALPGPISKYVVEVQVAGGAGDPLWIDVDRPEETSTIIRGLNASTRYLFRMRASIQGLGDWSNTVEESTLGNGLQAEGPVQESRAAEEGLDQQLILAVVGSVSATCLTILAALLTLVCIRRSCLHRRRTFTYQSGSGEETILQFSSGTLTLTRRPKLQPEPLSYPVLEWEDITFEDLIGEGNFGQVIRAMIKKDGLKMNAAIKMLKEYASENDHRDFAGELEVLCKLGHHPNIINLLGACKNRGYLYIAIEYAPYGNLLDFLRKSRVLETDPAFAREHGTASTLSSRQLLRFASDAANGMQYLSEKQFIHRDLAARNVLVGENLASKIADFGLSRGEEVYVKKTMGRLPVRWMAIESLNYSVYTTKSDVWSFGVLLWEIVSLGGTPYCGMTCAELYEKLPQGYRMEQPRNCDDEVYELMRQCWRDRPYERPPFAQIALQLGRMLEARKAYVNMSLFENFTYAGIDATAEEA

Chain of UniProt Q02763 (Q02763 23-1124 Q346P/T695I): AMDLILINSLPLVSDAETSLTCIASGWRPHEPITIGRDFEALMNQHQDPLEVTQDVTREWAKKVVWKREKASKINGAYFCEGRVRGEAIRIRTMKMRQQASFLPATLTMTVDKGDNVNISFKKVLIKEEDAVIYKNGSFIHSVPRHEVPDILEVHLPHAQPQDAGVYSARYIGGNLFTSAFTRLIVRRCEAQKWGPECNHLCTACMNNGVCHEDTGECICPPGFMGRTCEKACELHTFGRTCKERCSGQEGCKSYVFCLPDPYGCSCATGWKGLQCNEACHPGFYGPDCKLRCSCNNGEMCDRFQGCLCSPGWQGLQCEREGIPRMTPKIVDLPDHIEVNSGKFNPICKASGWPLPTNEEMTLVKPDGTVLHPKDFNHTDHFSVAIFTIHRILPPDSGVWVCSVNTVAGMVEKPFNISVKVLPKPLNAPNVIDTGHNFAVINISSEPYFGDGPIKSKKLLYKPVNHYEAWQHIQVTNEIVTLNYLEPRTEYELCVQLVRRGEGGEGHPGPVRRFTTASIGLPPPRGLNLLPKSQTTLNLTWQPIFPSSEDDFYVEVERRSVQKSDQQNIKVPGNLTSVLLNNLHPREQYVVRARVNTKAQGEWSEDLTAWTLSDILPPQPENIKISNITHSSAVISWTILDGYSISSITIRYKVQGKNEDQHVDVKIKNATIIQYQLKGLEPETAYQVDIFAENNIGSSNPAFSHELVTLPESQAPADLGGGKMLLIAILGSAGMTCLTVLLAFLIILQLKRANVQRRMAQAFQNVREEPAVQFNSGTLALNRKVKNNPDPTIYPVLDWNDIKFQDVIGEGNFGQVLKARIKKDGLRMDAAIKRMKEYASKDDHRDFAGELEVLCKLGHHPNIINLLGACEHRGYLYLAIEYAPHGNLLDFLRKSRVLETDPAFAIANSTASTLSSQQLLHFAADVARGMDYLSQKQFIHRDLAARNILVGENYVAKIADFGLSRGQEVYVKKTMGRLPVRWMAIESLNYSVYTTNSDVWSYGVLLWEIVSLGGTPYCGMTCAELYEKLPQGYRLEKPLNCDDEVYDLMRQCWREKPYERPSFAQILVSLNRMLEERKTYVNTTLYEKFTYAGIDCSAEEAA

Work on “COMP-Ang-1 chimeric protein (from UniProt Q15389 256-498) (ligand)” yielded a COMP-Ang-1 concentration giving maximal receptor phosphorylation (Human Tie-2 (human)) of 600 ng/mL, a COMP-Ang-1 concentration giving significant receptor phosphorylation (Human Tie-2 (human)) of 100 ng/mL and a COMP-Ang-1 concentration giving maximal receptor phosphorylation (Human Tie-1 (human)) of 600 ng/mL. For the same substance, the COMP-Ang-1 concentration giving significant receptor phosphorylation (Human Tie-1 (human)) was 100 ng/mL.
